We go through 2 molecules from paper PMC2248737.

In one series the target is T1, ttRecR (Thermus thermophilus HB8, UniProt Q5SHY0 1-194).
T1 sequence: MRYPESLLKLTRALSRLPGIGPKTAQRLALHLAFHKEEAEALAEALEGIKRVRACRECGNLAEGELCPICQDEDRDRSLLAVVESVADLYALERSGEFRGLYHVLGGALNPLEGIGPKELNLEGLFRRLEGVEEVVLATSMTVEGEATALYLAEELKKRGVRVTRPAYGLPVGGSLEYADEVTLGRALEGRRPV
Description: EMSA. (In EMSA bound probe runs differently from free probe, usually more slowly.)

The next series addresses T2, ttSSB (Thermus thermophilus HB8, UniProt Q5SLP9 1-263).
T2 sequence: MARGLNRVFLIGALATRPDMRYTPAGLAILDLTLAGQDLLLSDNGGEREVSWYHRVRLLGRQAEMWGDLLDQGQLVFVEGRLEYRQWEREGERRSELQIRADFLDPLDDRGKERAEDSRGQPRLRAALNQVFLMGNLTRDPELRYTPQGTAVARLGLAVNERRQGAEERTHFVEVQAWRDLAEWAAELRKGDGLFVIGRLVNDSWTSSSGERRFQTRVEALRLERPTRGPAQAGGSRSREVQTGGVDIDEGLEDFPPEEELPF
Description: pull-down.

B1: 66-mer ssDNA (ssDNA)
DNA: CTTATTAAAACGGCAACTCCTCCTCCGGCGGAAAGTCTTCCAAGCCTTCGTCAATGTCCACCCCAC
In the case of B1, the binding result with ttRecR is “no binding”.

B2: 60-mer ssDNA (ssDNA)
DNA: GCCAAGCTTGCATGCCTGCAGGTCGACTCTAGAGGATCCCCGGGTACCGAGCTCGAATTC
For the molecule B2, the binding result with ttSSB is given as “binds”.
